# The supplement of paper PMC12042874
# ± gives the uncertainty stated by the source.
# Assay: amyloid nucleation score (Sup35N fusion, yeast selection) (log enrichment); library NNK2; higher = more nucleation; inactive = no reads after selection
# In short: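 Yeast lacking psi expressed peptides of 20 random codons fused to Sup35N, received 100 μM copper sulfate for 24 hours, and were then grown for 7 days at 30°C on medium lacking adenine and uracil. Illumina sequencing of input and output plasmid inserts provided the reads. Nucleation scores are DiMSum log enrichments of output over input, centred on the mode of non-aggregating sequences. Any sequence with under 100 input reads was excluded.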
row,Substance,amyloid nucleation score
1,SLGEGISFIVWCDGILLLGC,-1.15 ± 0.76
2,SLGHDSICWRWSLE,5.49 ± 0.094
3,SLIDLLPCFFICRGRCFPSV,-0.672 ± 0.37
4,SLLHPFLTVGVCMCRYGVNI,1.81 ± 0.083
5,SLLLFIYQMDRLVVASMLTN,-0.651 ± 1.1
6,SLLLMDYFLYYYLSVEKRQR,inactive
7,SLLLYYMGGK,5.114 ± 0.042
8,SLMFGLIHSWDMK,inactive
9,SLNLFV,-0.901 ± 0.78
10,SLPCRIISNLYLPA,-1.23 ± 1.1
11,SLPFTLLNKSAHWNSLWFPG,-1.24 ± 1.1
12,SLPIWVRSRVEGLQERISWL,0.364 ± 0.5
13,SLPSRYWVSLFCTSLLW,0.743 ± 0.81
14,SLQSSYEYINPRSLLHCSHL,-1.44 ± 0.49
15,SLQYRTSDSQWYVVYCSQEP,0.484 ± 0.19
16,SLRWL,-0.18 ± 0.74
17,SLRYSMRPMAFRFKHPLAPT,-0.166 ± 0.28
18,SLSLGLSSCEPYYAVC,-0.276 ± 0.28
19,SLSNVLINCVLVFCW,6.53 ± 0.076
20,SLSRLVLECNGKSVRHEKM,0.393 ± 0.32
21,SLVFNQAHWNRLIPTT,-1.02 ± 0.63
22,SLVNYPMKVIGVVRKFW,2.08 ± 0.13
23,SLVVPDRYVNARYCNCCYGG,0.43 ± 0.65
24,SLYCGGQMLD,inactive
25,SMATSSYMLSAMRTCTLRSV,-0.231 ± 0.63

row,Substance,amyloid nucleation score
1,SMFCVPFMINLVLYVMGEVW,0.288 ± 0.64
2,SMILT,-1.11 ± 1.1
3,SMMKLDEYI,-1.17 ± 0.78
4,SMNVDTPCSGRWV,-0.249 ± 1.1
5,SMRVECF,-1.82 ± 1.1
6,SMRYVVISKQRSILEISLRY,3.46 ± 0.047
7,SMSIWSFYIAP,4.59 ± 0.066
8,SMSIYKAAYSFVTGSP,7.475 ± 0.026
9,SMSYTS,0.617 ± 0.14
10,SMTCRDLFSWYGSWYQSILF,0.874 ± 0.47
11,SMYSVYSFYTEIGTL,-0.441 ± 0.48
12,SNAVNCLLCVLTRDLIWMDA,8.958 ± 0.067
13,SNEKVAQSLFAKEREPLRGN,2.35 ± 0.12
14,SNGTWLKNLGGPPPGRAMPW,0.419 ± 0.34
15,SNLNLFITYLTLSTNDR,9.225 ± 0.042
16,SNNAI,0.476 ± 0.56
17,SNNWSLDMRRPVFKPPYGEG,-0.744 ± 0.53
18,SNSDIWHNARHPIDLATYC,0.293 ± 0.61
19,SNSKVSVLIFFSAHKGECAA,inactive
20,SNVSGCMELFNWVGYFPVSP,-0.733 ± 0.62
21,SNVTTYSNVSYIRHHSHYLG,1.32 ± 0.44
22,SNVYYRVC,4.72 ± 0.084
23,SNYDGPGSYIYEKYCSSEEG,-0.703 ± 1
24,SNYSTGHGAGMEDRRLEMGG,0.717 ± 0.49
25,SNYVSTHRIWFGYSWCKQEK,4.24 ± 0.13

row,Substance,amyloid nucleation score
1,SPACLNS,4.58 ± 0.053
2,SPFFVMLIITFTRMVEDLRM,-0.683 ± 1.1
3,SPIYYIKGYFLLISKCFADR,4.56 ± 0.073
4,SPPLYARHCYILERITTDRM,-1.73 ± 0.62
5,SPQLTIYPRMYSRSLVLNRC,0.078 ± 0.77
6,SPSDAL,-0.578 ± 0.36
7,SPTCWRRRTPLIVKYRFISV,1.15 ± 0.34
8,SQGCVICGFYLLWHPNRHCQ,9.447 ± 0.051
9,SQGGIRWY,-0.842 ± 0.38
10,SQIRGESSYYCLPSFSLLFF,6.215 ± 0.057
11,SQSMNGRQMHLYDRPSTGWF,inactive
12,SRCASKFVTWEAYYTVSVKR,0.25 ± 0.8
13,SRFCVRRLTVYRRSV,0.43 ± 0.45
14,SRFISLSSEDVSALNTCNNR,1.25 ± 0.61
15,SRFLARQLLKSASLRLFVET,-0.159 ± 0.35
16,SRFPGCSVSTGRHRTKVSSR,0.177 ± 0.43
17,SRFRGKLCFGWHKYAFGEVF,-0.711 ± 0.79
18,SRICMKWDSSNLWSF,inactive
19,SRIMALTMCFYTNRGRELVN,-1.19 ± 0.38
20,SRLMVGGQSLVSW,5.716 ± 0.042
21,SRLRNYLKVLSD,-0.474 ± 1.1
22,SRLSKTRLPFWHFMNMLKMP,0.126 ± 0.56
23,SRNLTVNK,-0.072 ± 0.79
24,SRSCVKH,-1.27 ± 0.55
25,SRSKGYLYGIMSAKLRCSLK,0.206 ± 0.39

row,Substance,amyloid nucleation score
1,SRWKGSRF,0.764 ± 0.26
2,SRWLGAKCSSRC,-0.361 ± 0.48
3,SRYSFYLRFHVLSVMAVQML,0.688 ± 0.81
4,SSANDNLNTERDQARLVTRC,-0.013 ± 0.36
5,SSASALMKLVMMY,-0.003 ± 0.22
6,SSATFYT,1.43 ± 0.26
7,SSAWLDLDIMLGLFVIVFTP,5.439 ± 0.044
8,SSDNRFCVDDFEVGVCGVMR,2.84 ± 0.07
9,SSDNTQYTETRYSYGFLIKL,0.776 ± 0.56
10,SSFFRISS,-0.907 ± 1
11,SSFWFSGAADINRVVLRGIE,-0.175 ± 0.32
12,SSGLH,0.527 ± 0.8
13,SSHLGTFLSDRGKSWVSGND,-0.569 ± 0.55
14,SSIRKDNRGCAHGGLVVER,0.698 ± 0.44
15,SSKSHLSLLK,-0.849 ± 0.4
16,SSLEFYVFWYP,-1.14 ± 1
17,SSLNM,-0.595 ± 0.61
18,SSLVNTACDTL,-0.036 ± 0.29
19,SSLYHLAGHGTAGSRLTSGR,0.511 ± 0.41
20,SSMGIVGPYGWFSTSMVNIV,0.895 ± 0.28
21,SSNALKGDGSFGQNEVESAK,-0.043 ± 0.32
22,SSNYYVLCFTMPYWFYSLV,1.02 ± 0.33
23,SSQTGTCFARLQSAVFQVVW,1.69 ± 0.36
24,SSREYEEGMAGTGGLELLSL,1.16 ± 0.44
25,SSRQTVGNTPASDLLRDYCW,0.388 ± 0.38

row,Substance,amyloid nucleation score
1,SSRTPNYA,inactive
2,SSRVVVLNYATRRGGQVSGR,0.496 ± 0.38
3,SSTSLLNLPCWDRIFHTVRL,-0.429 ± 0.42
4,SSTWLGLS,0.112 ± 1.1
5,SSWLEVAMTALRSIWYMD,0.103 ± 0.26
6,SSYGFINYMTS,inactive
7,SSYNSGLRLLSFTCCV,9.355 ± 0.052
8,SSYVVNSERVSDVARHSTLQ,1.91 ± 0.21
9,STCTLKCWRWMPWTSFSFRC,1.3 ± 0.21
10,STEAVMLQGVFHRSCCR,0.761 ± 0.46
11,STEERRWNN,-0.217 ± 0.79
12,STKSSVAVGSDSWNRSHRQV,0.773 ± 0.22
13,STLGPLGPSGYSRRARRLLA,7.415 ± 0.06
14,STMLWLCFFMGKLSVDTVFE,-0.6 ± 0.53
15,STTVTLGQSICFYLSCGLRD,9.214 ± 0.051
16,SVANERR,5.7 ± 0.065
17,SVCVWAYACRDRTPLLGRFC,0.508 ± 0.56
18,SVDIGYS,0.586 ± 0.81
19,SVDRVYGSTFIFSRGDR,8.113 ± 0.022
20,SVECKCYYRL,5.59 ± 0.062
21,SVEMRTNLTAGWRILIRWSS,1.2 ± 0.14
22,SVGEFSVRWAACGDLWCW,0.725 ± 0.2
23,SVGRHS,-0.841 ± 0.62
24,SVIEISECLERVVRWHRVAG,1.76 ± 0.33
25,SVKHGMLCYTLLDNMRCTVE,-0.087 ± 0.26

row,Substance,amyloid nucleation score
1,SVKILPVISTTPFGV,-0.922 ± 0.39
2,SVLEANMHAVWTGRYEN,0.713 ± 0.22
3,SVNAIRTQGLRSRMQFMKTG,-0.394 ± 1.1
4,SVPRYRSLMKRCH,0.189 ± 0.32
5,SVQVMCQSWPLSPLFAPRHR,5.92 ± 0.039
6,SVRGRNDESAMLTLQRELRY,-0.343 ± 1.1
7,SVSLDMGFSLDSHMRGEGRS,5.22 ± 0.057
8,SVTVTSLWHGTEL,-0.22 ± 1.1
9,SVTYWGWPTILAVRKCLFNS,2.5 ± 0.091
10,SVVMTIHNIGWMLRCSGIVY,-0.823 ± 0.56
11,SVVVWDSSPCIGGSRVADS,0.56 ± 0.57
12,SVWCWDHSILLGFNLCNRKM,6.648 ± 0.062
13,SVWDYC,-0.053 ± 0.39
14,SVYDPAYVLNMNTLSTSSNL,0.451 ± 0.33
15,SVYEIYWRVT,-0.348 ± 0.65
16,SVYENYRVTISLSRSSITSC,-1.1 ± 0.61
17,SVYGQRNTIIFEFSWMRTAS,7.492 ± 0.04
18,SVYVCVKWESVSVLVLY,1.86 ± 0.12
19,SWCFYMKGEWWYLLFHSNRS,-1.73 ± 0.55
20,SWCIMALRTF,0.249 ± 0.65
21,SWCVNVLAYSEKAFSRCVVM,8.583 ± 0.048
22,SWEKIGDCYIRWYLLHAGCL,inactive
23,SWELFSGAWTLGNRYPFRHK,-0.079 ± 0.55
24,SWETKVHIYMTDMLFSRHMS,2.63 ± 0.086
25,SWKDYHN,inactive

row,Substance,amyloid nucleation score
1,SWLSYSVRSM,inactive
2,SWMRFVKKIRQDAVRAVLIG,1.36 ± 0.4
3,SWSWSMGGNFRMVWSL,5.33 ± 0.06
4,SWTCHSFYFSDSFRHGYR,2.63 ± 0.069
5,SWTSIVQIVILCGFRQWLAR,0.076 ± 0.39
6,SWWIVFWGHTTTRWNCSLGD,-0.831 ± 0.35
7,SYAESLPLSDYNAVVRFPWT,-0.304 ± 1.1
8,SYCLDDMRPWLHESTLSLSM,-0.033 ± 0.3
9,SYCYWMFSVLGGSSASEFRY,inactive
10,SYGMRTEWTVCIAIRLHASN,1.31 ± 0.52
11,SYGVLGDLASGTSRTID,-1.25 ± 0.64
12,SYHWTGVFGLVHDFGLCCGS,0.425 ± 0.38
13,SYIHRAWAYM,inactive
14,SYLKETMTGLLPLG,inactive
15,SYNLNSNRVESIDFSSIIIV,-0.459 ± 1.1
16,SYNVFDVQIVLRYIVKLFTG,inactive
17,SYPVDEMMRFCLFVMDTGQL,0.106 ± 0.54
18,SYRLYFFMGFDMLYLCMG,-0.177 ± 0.79
19,SYTVAYISYFMLLLDGWGNR,0.815 ± 0.12
20,SYVDNWNISRVYLRLTYSVY,-0.96 ± 0.49
21,SYVQMTDT,-0.146 ± 1
22,SYVVCSVIGYYDYLRSRPSC,9.631 ± 0.036
